The text below walks through data of patent publication US12618835B2, “Multiplex microelectrode array for detection of proteases as biomarkers” (Kansas State University Research Foundation, priority 2021, dated 2026).

Assay [1] deals with T1, recombinant human cathepsin B (rhCB) (Homo sapiens, UniProt P07858).
T1 construct: purchased R&D Systems Inc. (Minneapolis, MN)
Briefly: Electrochemical (ACV) proteolysis of peptide-Fc on Au MEA by activated rhCB in different buffers, Example 3. Type of assay: biochemical. As for the experimental part: Gold MEA Functionalization. The diced Au MEA chip was sonicated in acetone for 5 min to remove the photoresist protection layer, followed by rinsing with methanol and subsequently with isopropanol for 30 seconds. The Au MEA was then rinsed with deionized water and blow-dried with N2. Prior to use, the Au MEA chip was mounted in a home-made electrochemical cell described in our previous report and electrochemically cleaned by cycling voltammetry (CV) between −0.60 to 0.70 V in 0.10 M phosphate buffer (0.038 M NaH2PO4 and 0.061 M Na2HPO4, pH=7.4) vs. a mercury/mercurous sulfate reference electrode (MSE) filled with a saturated K2SO4 solution (CH Instruments, Austin, TX). The cleaned Au MEA was then rinsed with deionized water and blow-dried with N2. All electrochemical protease detection measurements in this study used an in-house synthesized hexapeptide H-15 attached with a ferrocene (Fc) redox tag, as the substrate (referred to as “peptide-Fc” in this study). […] To functionalize the MEA with this peptide-Fc substrate, the chip was first incubated in 1.0 mM 6-mercapto-1-hexanol mixed with 0.2 mM 6-mercapto-1-hexanoic acid in deionized water for 40 min to form a close-packed self-assembled monolayer (SAM) due to thiol adsorption on Au surface. The formed alkanethiol layer serves as an insulator to reduce the background current while providing a ratio of about 1:5 between —COOH and —OH groups at the top surface. The electrode was then incubated in 2.0 mM peptide-Fc substrate mixed with 0.2 g/L 1-ethyl-3-(3-dimethylaminopropyl)carbodiimide (EDC) and 0.2 g/L N-hydroxysulfosuccinimide (Sulfo-NHS) as coupling agents for 2 hours at room temperature to form amide bonds between the amine group in the peptide-Fc substrate and the carboxylic acid group on the SAM surface. […] The functionalized chip was rinsed with deionized water for 30 seconds to remove the physically adsorbed molecules.
Electrochemical Experiments. Electrochemical experiments were performed on a specially designed electrochemical cell mounted on a large copper block for temperature control by circulating thermostatic silicone liquid through the internal channels. The thermal circulator (Julabo, Allentown, PA) was set to achieve a temperature of 38.6° C. Two buffer solutions, 0.5×PB (pH=7.4) and 25 mM MES (pH=5.0), were used. In some experiments, the rhCB was activated by incubation in 25 mM MES buffer (pH=5.0) containing 5 mM DTT for 15 min. […] Fc signal on the Au surface was detected by alternating current voltammetry (ACV) with an AC frequency of 300 Hz and a voltage amplitude of 100 mV on a DC ramp from −0.45 V to 0.20 V vs. MSE. Electrochemical measurements were performed using an IVIUM n-Stat potentiostat (Eindhoven, The Netherlands), which allows measurement of up to ten independent working electrodes simultaneously versus a common MSE reference electrode and a common Pt coil counter electrode.
Principle of the Electrochemical Detection of Protease Activity. The sensing principles are described in Example 1. As shown in the cyclic voltammogram (CV) in FIG. 27, the Fc tag in the peptide-Fc functionalized at the Au microelectrode surface can be oxidized into ferrocenium (Fc^+), giving a pair of well-defined redox waves centered at −0.15 V (vs. MSE). These peaks disappeared after the peptide-Fc substrate was cleaved by proteolysis. The surface concentration of peptide-Fc substrate ΓSs can be derived from the integrated area under the oxidation peak to give ΓSs=3.1 pmol/cm^2, corresponding to an average nearest-neighbor distance of 7.9 nm between the peptide-Fc. This low density allows easy access by the protease. As further shown in FIG. 28, the weak faradaic signal can be amplified using ACV, i.e., applying an AC voltage on top of a DC potential ramp from −0.45 V to 0.20 V (vs. MSE). […]

For another assay, the target named is cathepsin B (Homo sapiens, UniProt P07858). Further details: purchased R&D Systems Inc. (Minneapolis, MN). The conditions noted are these: previous finding; cited from earlier work.

Where no end group is shown, it is not given here. [ ]: non-standard residue; d: D form. The star is where a group is joined. aminomethylferrocene = [Fe+2].c1cc[c-](CN*)c1.c1cc[cH-]c1; Ava = NCCCCC(=O)O

As to “H2N-(CH2)4-CO-Pro-Leu-Ala-Phe-Val-Ala-NH-CH2-Fc ([Ava]PLAFVA-aminomethylferrocene) [Peptide H-15]”, the “inverse decay constant (1/τ)” value in assay [1] (1.0 nM activated cathepsin B, 0.2×PBS pH=7.4) is listed as “(7.65±0.42)×10^−4 s^−1”; in assay [1] (1.0 nM activated cathepsin B, 0.5×PBS pH=7.4), “(11.44±0.64)×10^−4 s^−1”; in assay [1] (1.0 nM activated cathepsin B, 1×PBS pH=7.4), “(4.2±1.1)×10^−4 s^−1”. For the same substance, the “average measured activity (1/τ)” value in assay [1] (1.0 nM activated cathepsin B, 0.5×PB pH=7.4, 8 channels) was “(42.1±3.7)×10^−4 s^−1”. In addition, the “activity in 0.5×PB relative to 25 mM MES buffer” value in assay [1] (1.0 nM activated cathepsin B, same Au MEA chip) is recorded as about 40 times. Further, the LOD of activity in assay [1] (0.5×PB, 3σblank+(1/τ)blank) stood at 0.000849 s⁻¹. For the same substance, in assay [1] (0.5×PB, 3σblank/m), the “LOD of cathepsin B concentration” value stood at 57.1 ± 0.41 pM. The “saturated 1/τ value” in assay [1] (rhCB concentration above 1.0 nM, 0.5×PB) is “about 45×10^−4 s^−1”.
Regarding “H2N-(CH2)4-CO-Pro-Leu-Arg-Phe-Gly-Ala-NH-CH2-Fc ([Ava]PLRFGA-aminomethylferrocene) [Peptide H-3]”, the “cleavage site by cathepsin B (found previously)” value with cathepsin B was “between the Gly-Ala residues and between the Phe-Gly residues”.
